Assay results taken from patent US20200181633A1.

Target: trimerized [change]-Tag (A/duck/Viet Nam/TG24-01/2005 (H5N1))
Assay: cell-based or functional assay

Substance | hemagglutination unit (HAU), co-expression with H5-S-Tag in plants in vivo [HAU] | hemagglutination unit (HAU), combination with H5-S-Tag in vitro [HAU]
S-Protein-GCN4 (reference 2) | 2 | 0
S-Protein-pII (reference 1) | 0 | 0
wild type S-Protein (from UniProt P61823 47-150) | 4 | 0
